In US20170158755A1:
Substitutions are numbered along the chain they refer to.

B1: Fab fragment of chimeric 19C12 (Fab, V domains shown)
VH: QVQLQQSGAELVKPGASVKISCKASGYAFSTYWMNWVKQRPGEGLEWIGQIYPGDGDTNYNGKFKGKATLTADKSSSTAYMQLSSLTSEDSAVYFCARSDGYYDYWGQGTTLTVSS
VL: NIVLTQSPASLAVSLGQRATISCRASESVDSYGTSFMHWYQQKPGQPPKLLICLASSLESGVPARFSGSGSRTDFTLTIDPVEADDAATYYCQQNNEDPPTFGAGTKLELKR
B2: Fab fragment of humanized 19C12 H3L6 (Fab, V domains shown)
VH: EVQLQQSGAELVKPGASVKVSCKASGYAFSTYWMNWVRQAPGQGLEWIGQIYPGDGDTNYNGKFKGRVTITADKSTSTAYMELSSLRSEDTAVYFCARSDGYYDYWGQGTTVTVSS
VL: B1 VL with N1D, Q17E, C53S, R72G, D80S, D85E, L110I
B3: Fab fragment of humanized 19C12 H2L4 (Fab, V domains shown)
VH: B2 VH with E1Q
VL: B1 VL with Q17E, C53S, R72G, D80S, D85E, L110I
B4: Fab fragment of humanized 19C12 H2L6 (Fab, V domains shown)
VH: B2 VH with E1Q
VL: B1 VL with N1D, Q17E, C53S, R72G, D80S, D85E, L110I
B5: Fab fragment of humanized 19C12 H2L3 (Fab, V domains shown)
VH: B2 VH with E1Q
VL: B1 VL with Q17E, D85E, L110I
B6: chimeric 19C12 antibody (antibody, V domains shown)
VH: B1 VH
VL: B1 VL
B7: humanized 19C12 antibody H2L3 (antibody, V domains shown)
VH: B2 VH with E1Q
VL: B1 VL with Q17E, D85E, L110I
B8: humanized 19C12 antibody H3L6 (antibody, V domains shown)
VH: B2 VH
VL: B1 VL with N1D, Q17E, C53S, R72G, D80S, D85E, L110I
B9: humanized 19C12 antibody H2L4 (antibody, V domains shown)
VH: B2 VH with E1Q
VL: B1 VL with Q17E, C53S, R72G, D80S, D85E, L110I
B10: humanized 19C12 antibody H2L6 (antibody, V domains shown)
VH: B2 VH with E1Q
VL: B1 VL with N1D, Q17E, C53S, R72G, D80S, D85E, L110I

target: His-LAMA4 as used in Example 6 (species not stated) (Homo sapiens (Human)) (UniProt Q16363); experiment: Biacore SPR, Fab, steady-state approximation

Kd [nM]	Binder
0.98	B1
7.2	B2
7.1	B3
8.4	B4
1.9	B5

target: His-LAMA4 as used in Example 6 (species not stated) (Homo sapiens (Human)) (UniProt Q16363); experiment: ForteBio BLI, LAMA-His on anti-His sensor, antibody 16.7 nM

Kd [nM]	Response	koff [s⁻¹]	kon [M⁻¹ s⁻¹]	Binder
0.0538	1.27	0.000403	7.49e+06	B6
0.0507	1.34	0.000363	7.16e+06	B7
0.0626	1.21	0.000501	8.01e+06	B8
0.0227	1.26	0.000227	9.98e+06	B9

target: His-LAMA4 as used in Example 6 (species not stated) (Homo sapiens (Human)) (UniProt Q16363); experiment: ForteBio BLI, LAMA-His on anti-His sensor, antibody 33.3 nM

Kd [nM]	Response	koff [s⁻¹]	kon [M⁻¹ s⁻¹]	Binder
0.111	1.38	0.000487	4.37e+06	B6
0.115	1.54	0.000493	4.29e+06	B7
0.123	1.26	0.000585	4.75e+06	B10
0.113	1.38	0.000553	4.89e+06	B8
0.127	1.25	0.00062	4.87e+06	B9

target: His-LAMA4 as used in Example 6 (species not stated) (Homo sapiens (Human)) (UniProt Q16363); experiment: ForteBio BLI, LAMA-His on anti-His sensor, antibody 8.33 nM

Kd [nM]	Response	koff [s⁻¹]	kon [M⁻¹ s⁻¹]	Binder
0.0126	1.15	0.000251	2e+07	B6
0.0124	1.23	0.000256	2.07e+07	B7
0.0154	1.13	0.000308	2e+07	B10
0.0135	1.2	0.000286	2.11e+07	B8
0.0161	1.18	0.000268	1.67e+07	B9

target: His-LAMA4 as used in Example 6 (species not stated) (Homo sapiens (Human)) (UniProt Q16363); experiment: Biacore SPR, Fab over His-laminin-α4 captured on anti-6xHis

Kd [nM]	koff [s⁻¹]	kon [M⁻¹ s⁻¹]	Binder
0.62	0.0059		B1
0.78	0.0077	9.8e+06	B5

target: His-LAMA4 as used in Example 6 (species not stated) (Homo sapiens (Human)) (UniProt Q16363); experiment: Biacore SPR, Fab over His-laminin-α4 captured on anti-6xHis; Fab, not IgG; kinetic fit

kon [M⁻¹ s⁻¹]	Binder
9.5e+06	B1

target: His-LAMA4 as used in Example 6 (species not stated) (Homo sapiens (Human)) (UniProt Q16363); experiment: Biacore, steady-state approximation; IgG loaded on anti-human Fc sensor, free laminin α4 as analyte

Kd [nM]	Binder
1.36	B8

target: His-LAMA4 as used in Example 6 (species not stated) (Homo sapiens (Human)) (UniProt Q16363); experiment: Biacore, steady-state approximation; IgG loaded on anti-human Fc sensor, free laminin α4 as analyte; IgG on anti-human Fc sensor, free laminin α4 as analyte; steady state

Kd [nM]	Binder
1.86	B7
